In doi:10.1101/2023.02.19.529138 (bioRxiv, 2023):

Legend:
Test in all cases: single-molecule photobleaching step analysis
LeuT (Aquifex aeolicus) = target: LeuT (Aquifex aeolicus)
[1] = target: T1, KcsA (Streptomyces lividans), P0A334; conditions: remark: other sources report otherwise
T1 chain: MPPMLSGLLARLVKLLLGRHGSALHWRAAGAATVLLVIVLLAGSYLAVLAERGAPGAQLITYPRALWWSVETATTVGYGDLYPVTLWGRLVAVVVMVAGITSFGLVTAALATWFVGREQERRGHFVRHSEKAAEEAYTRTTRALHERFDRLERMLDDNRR

[2] = target: the molecule itself

LeuT (natural protein)
percent dimer (LeuT (Aquifex aeolicus)): 75%
percent monomer (LeuT (Aquifex aeolicus)): 14%

B1: KcsA, P0A334 1-160 (natural protein)
chain: MPPMLSGLLARLVKLLLGRHGSALHWRAAGAATVLLVIVLLAGSYLAVLAERGAPGAQLITYPRALWWSVETATTVGYGDLYPVTLWGRLVAVVVMVAGITSFGLVTAALATWFVGREQERRGHFVRHSEKAAEEAYTRTTRALHERFDRLERMLDDNRR
stoichiometry N [1]: 4

B2: SemiSWEET (natural protein)
chain: MALIERIGKALEPLMLVMGLISPLATMPQLYKLYVSHSEHALGLSLTTWLLYSFIALLWTIYGIYHKNPTIWVGNCLGFLMYVAMVVGIIAHTGGTY
stoichiometry N [2]: 2
